Assay results reported in patent US20220041744A1 (INNATE PHARMA, published 2022).

T1: human recombinant soluble CD73 protein (human, UniProt P21589 27-547)
T1 construct: also called huCD73; rhCD73
T1 sequence: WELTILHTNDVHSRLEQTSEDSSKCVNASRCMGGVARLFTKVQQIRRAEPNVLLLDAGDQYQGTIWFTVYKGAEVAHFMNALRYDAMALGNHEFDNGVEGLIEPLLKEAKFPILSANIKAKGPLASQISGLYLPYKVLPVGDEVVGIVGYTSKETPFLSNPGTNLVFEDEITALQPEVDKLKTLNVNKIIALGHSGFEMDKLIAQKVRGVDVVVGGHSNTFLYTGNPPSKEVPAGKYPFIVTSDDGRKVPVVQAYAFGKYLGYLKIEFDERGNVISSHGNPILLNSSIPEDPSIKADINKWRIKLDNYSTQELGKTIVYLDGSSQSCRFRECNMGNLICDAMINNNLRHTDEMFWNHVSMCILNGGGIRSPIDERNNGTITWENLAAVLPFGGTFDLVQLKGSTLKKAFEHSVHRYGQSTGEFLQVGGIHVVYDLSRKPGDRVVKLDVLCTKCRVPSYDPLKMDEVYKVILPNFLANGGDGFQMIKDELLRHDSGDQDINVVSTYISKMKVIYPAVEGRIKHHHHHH

B1: H2L2 (antibody, human IgG1, V domains shown)
VH: QIQLVQSGAEVKKPGASVKVSCKASGYAFTSYNMYWVRQAPGQSLEWMGYIDPYNGGSSYNLTFKGRVTITVDKSASTAYMELSSLRSEDTAVYYCARGYGNYKAWFAYWGQGTLVTVSS
VL: DIQMTQSPSSLSASVGDRVTITCKASQSVSNDVAWYQQKPGKAPKLLIYYASTRYTGVPDRFSGSGYGTDFTFTISSLQPEDIATYYCQQDYSSLTFGQGTKLEIK
B2: H0L1 (antibody, human IgG1, V domains shown)
VH: QVQLVQSGAEVKKPGASVKVSCKASGYTFTSYNMYWVRQAPGQRLEWMGYIDPYNGGSSYNLTFKGRVTITRDTSASTAYMELSSLRSEDTAVYYCARGYGNYKAWFAYWGQGTLVTVSS
VL: DIQMTQSPSSLSASVGDRVTITCKASQSVSNDVAWYQQKPGKAPKLLIYYASTRYTGVPSRFSGSGYGTDFTFTISSLQPEDIATYYCQQDYSSLTFGQGTKLEIK
notes: H0 VH limits counted by alignment with H1
B3: H4L2 (antibody, human IgG1, V domains shown)
VH: QIQLVQSGAEVKKPGASVKVSCKASGYAFASYNMYWVRQAPGQSLEWIGYIDPYNGGSSYNLTFKGKATLTVDKSASTAYMELSSLRSEDTAVYYCARGYGNYKAWFAYWGQGTLVTVSS
VL: DIQMTQSPSSLSASVGDRVTITCKASQSVSNDVAWYQQKPGKAPKLLIYYASTRYTGVPDRFSGSGYGTDFTFTISSLQPEDIATYYCQQDYSSLTFGQGTKLEIK
B4: H4L0 (antibody, human IgG1, V domains shown)
VH: QIQLVQSGAEVKKPGASVKVSCKASGYAFASYNMYWVRQAPGQSLEWIGYIDPYNGGSSYNLTFKGKATLTVDKSASTAYMELSSLRSEDTAVYYCARGYGNYKAWFAYWGQGTLVTVSS
VL: DIQMTQSPSSLSASVGDRVTITCKASQSVSNDVAWYQQKPGKAPKLLIYYASTRYTGVPSRFSGSGSGTDFTFTISSLQPEDIATYYCQQDYSSLTFGQGTKLEIK
notes: L0 VL limits counted by alignment with L1
B5: H0L0 (antibody, human IgG1, V domains shown)
VH: QVQLVQSGAEVKKPGASVKVSCKASGYTFTSYNMYWVRQAPGQRLEWMGYIDPYNGGSSYNLTFKGRVTITRDTSASTAYMELSSLRSEDTAVYYCARGYGNYKAWFAYWGQGTLVTVSS
VL: DIQMTQSPSSLSASVGDRVTITCKASQSVSNDVAWYQQKPGKAPKLLIYYASTRYTGVPSRFSGSGSGTDFTFTISSLQPEDIATYYCQQDYSSLTFGQGTKLEIK
notes: variable-domain limits counted by alignment with H1 and L1
B6: H0L3 (antibody, human IgG1, V domains shown)
VH: QVQLVQSGAEVKKPGASVKVSCKASGYTFTSYNMYWVRQAPGQRLEWMGYIDPYNGGSSYNLTFKGRVTITRDTSASTAYMELSSLRSEDTAVYYCARGYGNYKAWFAYWGQGTLVTVSS
VL: DVQMTQSPSSLSASVGDRVTITCKASQSVSNDVAWYQQKPGKAPKLLIYYASTRYTGVPDRFSGSGYGTDFTFTISSLQPEDIATYYCQQDYSSLTFGQGTKLEIK
notes: as for B2
B7: H4L4 (antibody, human IgG1, V domains shown)
VH: QIQLVQSGAEVKKPGASVKVSCKASGYAFASYNMYWVRQAPGQSLEWIGYIDPYNGGSSYNLTFKGKATLTVDKSASTAYMELSSLRSEDTAVYYCARGYGNYKAWFAYWGQGTLVTVSS
VL: DVQMTQSPSSLSASVGDRVTITCKASQSVSNDVAWYQQKPGKAPKLLIYYASTRYTGVPDRFSGSGYGTDFTFTISSLQPEDIATYFCQQDYSSLTFGQGTKLEIK
B8: H0L4 (antibody, human IgG1, V domains shown)
VH: QVQLVQSGAEVKKPGASVKVSCKASGYTFTSYNMYWVRQAPGQRLEWMGYIDPYNGGSSYNLTFKGRVTITRDTSASTAYMELSSLRSEDTAVYYCARGYGNYKAWFAYWGQGTLVTVSS
VL: DVQMTQSPSSLSASVGDRVTITCKASQSVSNDVAWYQQKPGKAPKLLIYYASTRYTGVPDRFSGSGYGTDFTFTISSLQPEDIATYFCQQDYSSLTFGQGTKLEIK
notes: as for B2
B9: H4L3 (antibody, human IgG1, V domains shown)
VH: QIQLVQSGAEVKKPGASVKVSCKASGYAFASYNMYWVRQAPGQSLEWIGYIDPYNGGSSYNLTFKGKATLTVDKSASTAYMELSSLRSEDTAVYYCARGYGNYKAWFAYWGQGTLVTVSS
VL: DVQMTQSPSSLSASVGDRVTITCKASQSVSNDVAWYQQKPGKAPKLLIYYASTRYTGVPDRFSGSGYGTDFTFTISSLQPEDIATYYCQQDYSSLTFGQGTKLEIK
B10: H3L3 (antibody, human IgG1, V domains shown)
VH: QIQLVQSGAEVKKPGASVKVSCKASGYAFTSYNMYWVRQAPGQSLEWIGYIDPYNGGSSYNLTFKGKATITVDKSASTAYMELSSLRSEDTAVYYCARGYGNYKAWFAYWGQGTLVTVSS
VL: DVQMTQSPSSLSASVGDRVTITCKASQSVSNDVAWYQQKPGKAPKLLIYYASTRYTGVPDRFSGSGYGTDFTFTISSLQPEDIATYYCQQDYSSLTFGQGTKLEIK
B11: H0L2 (antibody, human IgG1, V domains shown)
VH: QVQLVQSGAEVKKPGASVKVSCKASGYTFTSYNMYWVRQAPGQRLEWMGYIDPYNGGSSYNLTFKGRVTITRDTSASTAYMELSSLRSEDTAVYYCARGYGNYKAWFAYWGQGTLVTVSS
VL: DIQMTQSPSSLSASVGDRVTITCKASQSVSNDVAWYQQKPGKAPKLLIYYASTRYTGVPDRFSGSGYGTDFTFTISSLQPEDIATYYCQQDYSSLTFGQGTKLEIK
notes: as for B2
B12: H1L4 (antibody, human IgG1, V domains shown)
VH: QIQLVQSGAEVKKPGASVKVSCKASGYTFTSYNMYWVRQAPGQRLEWMGYIDPYNGGSSYNLTFKGRVTITRDKSASTAYMELSSLRSEDTAVYYCARGYGNYKAWFAYWGQGTLVTVSS
VL: DVQMTQSPSSLSASVGDRVTITCKASQSVSNDVAWYQQKPGKAPKLLIYYASTRYTGVPDRFSGSGYGTDFTFTISSLQPEDIATYFCQQDYSSLTFGQGTKLEIK
B13: H2L3 (antibody, human IgG1, V domains shown)
VH: QIQLVQSGAEVKKPGASVKVSCKASGYAFTSYNMYWVRQAPGQSLEWMGYIDPYNGGSSYNLTFKGRVTITVDKSASTAYMELSSLRSEDTAVYYCARGYGNYKAWFAYWGQGTLVTVSS
VL: DVQMTQSPSSLSASVGDRVTITCKASQSVSNDVAWYQQKPGKAPKLLIYYASTRYTGVPDRFSGSGYGTDFTFTISSLQPEDIATYYCQQDYSSLTFGQGTKLEIK
B14: H2L4 (antibody, human IgG1, V domains shown)
VH: QIQLVQSGAEVKKPGASVKVSCKASGYAFTSYNMYWVRQAPGQSLEWMGYIDPYNGGSSYNLTFKGRVTITVDKSASTAYMELSSLRSEDTAVYYCARGYGNYKAWFAYWGQGTLVTVSS
VL: DVQMTQSPSSLSASVGDRVTITCKASQSVSNDVAWYQQKPGKAPKLLIYYASTRYTGVPDRFSGSGYGTDFTFTISSLQPEDIATYFCQQDYSSLTFGQGTKLEIK
B15: H3L4 (antibody, human IgG1, V domains shown)
VH: QIQLVQSGAEVKKPGASVKVSCKASGYAFTSYNMYWVRQAPGQSLEWIGYIDPYNGGSSYNLTFKGKATITVDKSASTAYMELSSLRSEDTAVYYCARGYGNYKAWFAYWGQGTLVTVSS
VL: DVQMTQSPSSLSASVGDRVTITCKASQSVSNDVAWYQQKPGKAPKLLIYYASTRYTGVPDRFSGSGYGTDFTFTISSLQPEDIATYFCQQDYSSLTFGQGTKLEIK
B16: H3L2 (antibody, human IgG1, V domains shown)
VH: QIQLVQSGAEVKKPGASVKVSCKASGYAFTSYNMYWVRQAPGQSLEWIGYIDPYNGGSSYNLTFKGKATITVDKSASTAYMELSSLRSEDTAVYYCARGYGNYKAWFAYWGQGTLVTVSS
VL: DIQMTQSPSSLSASVGDRVTITCKASQSVSNDVAWYQQKPGKAPKLLIYYASTRYTGVPDRFSGSGYGTDFTFTISSLQPEDIATYYCQQDYSSLTFGQGTKLEIK
B17: H1L3 (antibody, human IgG1, V domains shown)
VH: QIQLVQSGAEVKKPGASVKVSCKASGYTFTSYNMYWVRQAPGQRLEWMGYIDPYNGGSSYNLTFKGRVTITRDKSASTAYMELSSLRSEDTAVYYCARGYGNYKAWFAYWGQGTLVTVSS
VL: DVQMTQSPSSLSASVGDRVTITCKASQSVSNDVAWYQQKPGKAPKLLIYYASTRYTGVPDRFSGSGYGTDFTFTISSLQPEDIATYYCQQDYSSLTFGQGTKLEIK

The binders below were run against T1, human recombinant soluble CD73 protein (assay: SPR, Ab captured on Protein A, soluble huCD73 as analyte).
Experimental: SPR measurements were performed on a Biacore™ T200 apparatus at 25° C. Protein-A (GE Healthcare) was immobilized on a Sensor Chip CM5 (GE Healthcare). […] The entire sensorgram sets were fitted using the 1:1 kinetic binding model. Bivalent affinities and kinetic association and dissociation rate constants are calculated.
The binding of the antibodies in Table 2 of Example 1 were tested for binding to human soluble dimeric CD73 proteins and were cloned, produced and purified. Affinity and association and dissociation constants of humanized variants were assessed by SPR analysis.

Binder	Kd	koff	kon
B1	1.3 nM	0.000155 s⁻¹	118000 M⁻¹ s⁻¹
B2	0.9 nM	0.000127 s⁻¹	144000 M⁻¹ s⁻¹
B3	0.9 nM	7.12e-05 s⁻¹	77500 M⁻¹ s⁻¹
B4	7.8 nM	0.00123 s⁻¹	158000 M⁻¹ s⁻¹
B5	65 nM	0.00882 s⁻¹	136000 M⁻¹ s⁻¹
B6	0.6 nM	9.49e-05 s⁻¹	170000 M⁻¹ s⁻¹
B7	1.2 nM	7.14e-05 s⁻¹	60100 M⁻¹ s⁻¹
B8	0.6 nM	8.65e-05 s⁻¹	137000 M⁻¹ s⁻¹
B9	0.7 nM	7.69e-05 s⁻¹	110000 M⁻¹ s⁻¹
B10	1.1 nM	0.000105 s⁻¹	95700 M⁻¹ s⁻¹
B11	0.7 nM	0.000119 s⁻¹	168000 M⁻¹ s⁻¹
B12	0.7 nM	6.77e-05 s⁻¹	98200 M⁻¹ s⁻¹
B13	1 nM	0.000123 s⁻¹	120000 M⁻¹ s⁻¹
B14	0.9 nM	0.000106 s⁻¹	120000 M⁻¹ s⁻¹
B15	1 nM	8.91e-05 s⁻¹	90400 M⁻¹ s⁻¹
B16	1.4 nM	0.000122 s⁻¹	86600 M⁻¹ s⁻¹
B17	0.8 nM	7.2e-05 s⁻¹	92600 M⁻¹ s⁻¹
